Measured values published in article doi:10.1101/2022.10.14.512337.
Several values for one entry are separate records, joined by “and”; a condition that tells them apart may be missing. Equal entries are not always repeated.

Experiments:
[1] = target: truncated protein consisting of the main body of L. farciminis OxDC (aa 22-373) (L. farciminis); experiment: crystal structure
[2] = target: L. farciminis oxalate decarboxylase (OxDC), as used for size-exclusion chromatography (L. farciminis); experiment: SEC

| stoichiometry N [1] | stoichiometry N [2] | Substance |
| --- | --- | --- |
| 6 |  | truncated protein consisting of the main body of L. farciminis OxDC (aa 22-373) (domain or fragment) |
|  | 2 and 6 | L. farciminis oxalate decarboxylase (OxDC), as used for size-exclusion chromatography (enzyme) |
